Test results as given in patent US20030138452A1.

Columns and labels:
[1] = biological target: chemokine receptors of MCP-3 on murine splenocytes and purified T cells; experiment: cell-based or functional assay
[2] = biological target: chemokine receptor of IP-10 on murine splenocytes and purified T cells (murine) (UniProt O88410); experiment: cell-based or functional assay
UniProt O88410, sequence (O88410 whole entry): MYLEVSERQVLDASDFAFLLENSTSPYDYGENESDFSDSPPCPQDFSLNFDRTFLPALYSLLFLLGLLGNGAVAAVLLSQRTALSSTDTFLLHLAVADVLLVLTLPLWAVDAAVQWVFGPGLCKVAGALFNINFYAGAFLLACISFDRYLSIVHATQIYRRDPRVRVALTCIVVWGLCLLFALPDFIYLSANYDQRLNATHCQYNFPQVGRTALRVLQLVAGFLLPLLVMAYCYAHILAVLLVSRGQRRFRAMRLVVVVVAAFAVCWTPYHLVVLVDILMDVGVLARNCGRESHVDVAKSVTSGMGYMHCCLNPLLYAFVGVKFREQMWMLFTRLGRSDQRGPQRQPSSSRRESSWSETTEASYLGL

Question: With “MCP3FBscFv38MH (MCP-3 fused to scFv38 of the 38c13 lymphoma) (from UniProt Q03366 24-97)” as the molecule, how does the in vitro chemotaxis of murine lymphocytes (48-well microchemotaxis chamber): concentration of maximum activity [1] read?
Answer: The in vitro chemotaxis of murine lymphocytes (48-well microchemotaxis chamber): concentration of maximum activity was 100 µg/mL.

B1: IP10FBscFv38MH (murine IP-10 fused to scFv38 of the 38c13 lymphoma) (protein, part only; not given: scFv38 VH and VL, tags, not shown: small tags and cut ends)
chain, part: IPLARTVRCNCIHIDDGPVRMRAIGKLEIIPASLSCPRVEIIATMKKNDEQRCLNPESKTIKNLMKAFSQKRSKRAPEFNDQAPKSLE
Question: Which in vitro chemotaxis of murine lymphocytes (48-well microchemotaxis chamber): concentration of maximum activity [2] does the source give for B1 here?
Answer: Its in vitro chemotaxis of murine lymphocytes (48-well microchemotaxis chamber): concentration of maximum activity is 100 µg/mL.
